Test results taken from the Human Domainome abundance scans (Beltran et al. 2025).
± gives the uncertainty stated by the source.

B1: Receptor-interacting serine/threonine-protein kinase 2, residues 438 to 518; numbered along this chain, O43353 (parent)
chain: QWIQSKREDIVNQMTEACLNQSLDALLSRDLIMKEDYELVSTKPTRTSKVRQLLDTTDIQGEEFAKVIVQKLKDNKQMGLQ
B2: Advillin, residues 785 to 819; numbered along this chain, O75366 (parent)
chain: LSEQDFVSVFGITRGQFAALPGWKQLQMKKEKGLF

Variants of: B1
Experiment: abundance fitness (aPCA) (normalised: wild type 0, dead -1); higher = more abundant; growth selection in yeast, the domain comes from the species named
Conditions: Homo sapiens

Abundance fitness: each site, then its substitutions
K76: L -0.125 ± 0.086; C 0.003 ± 0.14; H -0.069 ± 0.15; Q -0.032 ± 0.085; P -0.314 ± 0.15; E -0.19 ± 0.14; Y -0.272 ± 0.15; D -0.192 ± 0.14; G 0.066 ± 0.057; R -0.192 ± 0.065; S 0.032 ± 0.071; N -0.203 ± 0.35; A 0.008 ± 0.087; T -0.093 ± 0.1; F -0.207 ± 0.14; W -0.36 ± 0.11; V -0.301 ± 0.092
Q77: H -0.137 ± 0.4
M78: I -0.372 ± 0.5
Q70: G -0.144 ± 0.065; P -0.567 ± 0.079; S -0.174 ± 0.066; A -0.072 ± 0.058; M -0.436 ± 0.15; Y -0.776 ± 0.39; L -0.687 ± 0.11; H -0.351 ± 0.3; D -0.206 ± 0.3; W -0.645 ± 0.16; I -0.614 ± 0.42; V -0.714 ± 0.094; N -0.81 ± 0.42; E 0.08 ± 0.15
V67: W -0.95 ± 0.15; Q -0.568 ± 0.12; T -0.305 ± 0.086; R -0.854 ± 0.087
K73: P -0.633 ± 0.071; S 0.001 ± 0.061; H -0.319 ± 0.17; L -0.064 ± 0.053; F -0.609 ± 0.49; A -0.119 ± 0.062; Q -0.003 ± 0.076; D -0.269 ± 0.13; R 0.011 ± 0.051; V -0.191 ± 0.057; G -0.132 ± 0.056; E 0.072 ± 0.099; T -0.01 ± 0.075; M -0.107 ± 0.093; N -0.191 ± 0.22; Y -0.039 ± 0.16
I68: A -0.367 ± 0.081; R -0.695 ± 0.07; Y -0.568 ± 0.24; V -0.147 ± 0.091; N -0.459 ± 0.26; Q -0.554 ± 0.12; H -0.508 ± 0.082; P -0.462 ± 0.07; F -0.924 ± 0.21; W -0.958 ± 0.16; K -0.909 ± 0.22; M -0.201 ± 0.14; E -0.152 ± 0.18; G -0.497 ± 0.086; L -0.413 ± 0.077; C -0.866 ± 0.19; T -0.345 ± 0.095; S -0.491 ± 0.073
G79: R -0.282 ± 0.14; S -0.021 ± 0.18; V -0.167 ± 0.29
Q81: H -0.419 ± 0.19
K71: A 0.022 ± 0.074; L -0.289 ± 0.061; D -0.381 ± 0.12; N -0.157 ± 0.25; Y -0.204 ± 0.14; H 0.078 ± 0.11; M -0.113 ± 0.11; V 0.151 ± 0.066; F -0.249 ± 0.15; E -0.21 ± 0.11; G -0.281 ± 0.073; I -0.122 ± 0.11; C -0.02 ± 0.11; W -1.09 ± 0.34; P -0.555 ± 0.087; Q -0.086 ± 0.1; R -0.612 ± 0.05; S 0.028 ± 0.054
N75: L -0.135 ± 0.054; Y -0.285 ± 0.14; D -0.053 ± 0.1; C -0.2 ± 0.084; K -0.535 ± 0.14; G -0.241 ± 0.055; T -0.245 ± 0.066; A -0.281 ± 0.071; V -0.383 ± 0.06; P -0.446 ± 0.07; H -0.024 ± 0.095; W -0.244 ± 0.083; R -0.62 ± 0.045; M -0.162 ± 0.12; F -0.431 ± 0.16; Q -0.046 ± 0.1
D74: C -0.246 ± 0.13; W -0.488 ± 0.1; N -0.345 ± 0.29; Q -0.248 ± 0.11; A -0.076 ± 0.07; S -0.323 ± 0.07; E -0.085 ± 0.15; K -0.644 ± 0.2; I -0.261 ± 0.069; T -0.285 ± 0.09; P -0.512 ± 0.053; M -0.399 ± 0.11; F -0.486 ± 0.14; G -0.336 ± 0.058; Y -0.173 ± 0.26; H 0.046 ± 0.096; R -0.49 ± 0.051
L72: V -0.394 ± 0.097; E -0.283 ± 0.12; G -0.528 ± 0.07; N -0.043 ± 0.33; R -0.633 ± 0.12; F -0.072 ± 0.14; Q -0.451 ± 0.15; Y -0.695 ± 0.21; A -0.865 ± 0.14; C -0.713 ± 0.34; H -0.741 ± 0.2; S -0.587 ± 0.072; P -0.54 ± 0.077; M 0.121 ± 0.14; T -0.448 ± 0.13
V69: D -0.27 ± 0.2; N -0.94 ± 0.35; I -0.051 ± 0.16; K -0.35 ± 0.13; G -0.553 ± 0.086; A -0.384 ± 0.097; M 0.003 ± 0.11; Q -0.306 ± 0.085; L -0.286 ± 0.093; E -0.178 ± 0.12; W -0.4 ± 0.067; C -0.159 ± 0.11; S -0.57 ± 0.094; F -0.057 ± 0.13; H -0.508 ± 0.25; Y -0.23 ± 0.17

Variants of: B2
Experiment: as above
Conditions: Homo sapiens

Abundance fitness, by site and new letter:
S8: W -0.439 ± 0.11; T -0.024 ± 0.068; L -0.238 ± 0.083; V -0.117 ± 0.088; D -0.081 ± 0.082; E 0.119 ± 0.063; G -0.026 ± 0.058; N -0.329 ± 0.2; A 0.052 ± 0.078; P -0.506 ± 0.24; M 0.003 ± 0.088; Y -0.84 ± 0.26; R 0.023 ± 0.069; F -0.476 ± 0.18; K 0.156 ± 0.066
S2: E -0.085 ± 0.067; K -0.127 ± 0.077; G -0.078 ± 0.056; D 0.311 ± 0.23; L -0.123 ± 0.071; Q -0.416 ± 0.1; W -0.305 ± 0.069; Y -0.505 ± 0.15; M -0.514 ± 0.11; V -0.322 ± 0.083; C -0.175 ± 0.087; T -0.289 ± 0.11; R -0.282 ± 0.057; P -0.584 ± 0.22
V9: C -0.527 ± 0.15; A -0.222 ± 0.064; L -0.131 ± 0.063; H 0.018 ± 0.11; M -0.184 ± 0.093; R -0.162 ± 0.056; P -0.632 ± 0.093; K -0.04 ± 0.075; S -0.456 ± 0.096; W -0.684 ± 0.11; E -0.149 ± 0.07; Y -0.156 ± 0.17; T -0.141 ± 0.071; F -0.422 ± 0.1; G -0.286 ± 0.066; D -0.443 ± 0.17
E3: S -0.183 ± 0.11; K -0.409 ± 0.16; Q -0.225 ± 0.091; A -0.258 ± 0.052; L -0.304 ± 0.057; F -0.039 ± 0.14; N 0.165 ± 0.12; W -0.4 ± 0.091; H -0.323 ± 0.12; I -0.175 ± 0.22; D 0.103 ± 0.082; Y -0.543 ± 0.15; G -0.366 ± 0.061; P -0.268 ± 0.18; R -0.476 ± 0.063; C -0.421 ± 0.087; M -0.461 ± 0.13; T -0.092 ± 0.085
V7: L 0.04 ± 0.062; K -0.384 ± 0.2; E 0.105 ± 0.07; Q 0.004 ± 0.072; G -0.306 ± 0.057; S 0.071 ± 0.11; I -0.028 ± 0.1; F -0.038 ± 0.14; D -0.085 ± 0.1; R -0.139 ± 0.056; M -0.291 ± 0.17; T -0.115 ± 0.088; W -0.343 ± 0.12; A -0.149 ± 0.054
I12: L -0.101 ± 0.07; Q -0.897 ± 0.15; S -0.629 ± 0.064; N -0.471 ± 0.1; M 0.128 ± 0.079; R -0.629 ± 0.058; G -0.429 ± 0.062; P -0.713 ± 0.092; A -0.445 ± 0.083; E -0.592 ± 0.12; K -0.312 ± 0.11; D -0.442 ± 0.14; H -0.633 ± 0.17
F6: P -0.461 ± 0.12; S -0.488 ± 0.087; N -0.928 ± 0.17; W -0.186 ± 0.072; A -1.28 ± 0.14; C 0.06 ± 0.095; Q -0.402 ± 0.079; V -1.19 ± 0.088; G -1.08 ± 0.083; Y -0.224 ± 0.16; I -0.162 ± 0.12; R -0.468 ± 0.051; T -0.183 ± 0.068; D -0.831 ± 0.1; H -0.87 ± 0.31; E -0.906 ± 0.083; K -0.514 ± 0.11
G11: K -0.453 ± 0.11; V -0.537 ± 0.082; T -0.547 ± 0.12; R -0.513 ± 0.059; M -0.986 ± 0.16; D -0.647 ± 0.27; L -1.05 ± 0.14; P -0.797 ± 0.11; E -0.65 ± 0.093; A -0.485 ± 0.063; W -0.846 ± 0.14; S -0.353 ± 0.071; F 0.179 ± 0.074
D5: Y -0.782 ± 0.32; V -0.521 ± 0.077; S -0.031 ± 0.06; W -1 ± 0.11; L -0.209 ± 0.059; C -1.17 ± 0.25; K -0.146 ± 0.075; R -0.188 ± 0.068; T -0.255 ± 0.073; Q -0.204 ± 0.077; M -0.332 ± 0.14; P -0.651 ± 0.12; E -0.073 ± 0.075; G -0.188 ± 0.068
Q4: F -0.063 ± 0.17; H -0.277 ± 0.18; E 0.018 ± 0.09; D -0.592 ± 0.12; K 0 ± 0.083; I 0.237 ± 0.092; T -0.202 ± 0.072; R -0.11 ± 0.053; P -0.076 ± 0.062; N -0.317 ± 0.19; V 0.002 ± 0.06; W -0.267 ± 0.09; L 0.016 ± 0.054; S 0.019 ± 0.056; A -0.064 ± 0.059; C -0.846 ± 0.1; G -0.001 ± 0.052
L1: C -0.279 ± 0.15; G -0.051 ± 0.073; E 0.694 ± 0.2; N -0.078 ± 0.13; K -0.266 ± 0.076; W -0.079 ± 0.059; S -0.135 ± 0.084; A -0.322 ± 0.2; R -0.156 ± 0.08
F10: K -0.319 ± 0.089; S -0.383 ± 0.067; L -0.392 ± 0.059; G -0.27 ± 0.058; D -0.316 ± 0.12; P -0.726 ± 0.16; N -0.2 ± 0.17; A -0.398 ± 0.07; V -0.332 ± 0.055; E -0.285 ± 0.086; Y -0.016 ± 0.093; H -0.932 ± 0.18; M -0.305 ± 0.086; C -0.31 ± 0.082; T -0.367 ± 0.07; Q -0.59 ± 0.087; W -0.274 ± 0.066
